According to paper PMC9009071, “Pyruvate kinase, a metabolic sensor powering glycolysis, drives the metabolic control of DNA replication” (BMC Biology, 2022):

Columns and labels:
PykA = biological target: T1, PykA (Bacillus subtilis, UniProt P80885); experiment: LDH-coupled NADH oxidation at […] nm, Michaelis-Menten fit; format: biochemical; conditions: 2 mM ADP, 10 mM MgCl2, 50 mM KCl, 10 mM Tris-HCl pH 7.5, 25 °C; no effector added
T1 construct: gene pyk; full length, 585 residues (1755 bp); N-terminal His-MBP tag removed by TEV; E. coli Rosetta(DE3); homotetramer
T1 sequence (P80885 2-585): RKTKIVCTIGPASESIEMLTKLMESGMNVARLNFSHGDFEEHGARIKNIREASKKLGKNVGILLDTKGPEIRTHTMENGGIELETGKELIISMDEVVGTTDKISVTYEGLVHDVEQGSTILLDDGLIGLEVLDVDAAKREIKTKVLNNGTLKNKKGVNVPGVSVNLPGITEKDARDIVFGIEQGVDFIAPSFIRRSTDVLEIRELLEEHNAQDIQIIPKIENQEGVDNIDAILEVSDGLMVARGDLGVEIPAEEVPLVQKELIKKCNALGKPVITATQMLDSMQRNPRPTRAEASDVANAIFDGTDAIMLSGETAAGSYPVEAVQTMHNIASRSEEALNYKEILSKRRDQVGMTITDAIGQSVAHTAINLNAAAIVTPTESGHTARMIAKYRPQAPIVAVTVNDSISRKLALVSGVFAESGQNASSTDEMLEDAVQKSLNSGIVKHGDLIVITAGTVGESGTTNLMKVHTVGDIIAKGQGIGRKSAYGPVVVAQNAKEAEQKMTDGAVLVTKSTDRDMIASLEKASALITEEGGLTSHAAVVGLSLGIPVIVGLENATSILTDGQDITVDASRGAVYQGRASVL

[1] = biological target: the molecule itself; experiment: native MS; purified PykA, 4 uM, in 200 mM ammonium acetate pH 6.8; nano-electrospray on a modified Q-Tof; self-association (tetramer)
purified protein = substrate: C=C(OP(=O)(O)O)C(=O)O; experiment: purified protein; format: biochemical, Bacillus subtilis; conditions: 2 mM ADP, 10 mM MgCl2, 50 mM KCl, 10 mM Tris-HCl pH 7.5, 25 °C, no effector added, Hill coefficient n = 0.8111
PykA (pyruvate kinase) = biological target: T2, PykA (pyruvate kinase) (Bacillus subtilis, UniProt P80885 1-585); experiment: EMSA; 1,250 nM PykA tetramer, 1 nM DNA, 10 mM Mg2+, no DnaE; EMSA: 50 mM Tris-HCl pH 7.5, 50 mM NaCl, 10 mM MgCl2, 10 min at 37 °C, 1 nM DNA; conditions: protein: recombinant; tags: none (N-terminal His-MBP removed by TEV); chain copies: 4; label: 5'-32P on the 15mer; 15mer pairs with the 3' half of the 30mer; template 5' overhang 15 nt
T2 sequence: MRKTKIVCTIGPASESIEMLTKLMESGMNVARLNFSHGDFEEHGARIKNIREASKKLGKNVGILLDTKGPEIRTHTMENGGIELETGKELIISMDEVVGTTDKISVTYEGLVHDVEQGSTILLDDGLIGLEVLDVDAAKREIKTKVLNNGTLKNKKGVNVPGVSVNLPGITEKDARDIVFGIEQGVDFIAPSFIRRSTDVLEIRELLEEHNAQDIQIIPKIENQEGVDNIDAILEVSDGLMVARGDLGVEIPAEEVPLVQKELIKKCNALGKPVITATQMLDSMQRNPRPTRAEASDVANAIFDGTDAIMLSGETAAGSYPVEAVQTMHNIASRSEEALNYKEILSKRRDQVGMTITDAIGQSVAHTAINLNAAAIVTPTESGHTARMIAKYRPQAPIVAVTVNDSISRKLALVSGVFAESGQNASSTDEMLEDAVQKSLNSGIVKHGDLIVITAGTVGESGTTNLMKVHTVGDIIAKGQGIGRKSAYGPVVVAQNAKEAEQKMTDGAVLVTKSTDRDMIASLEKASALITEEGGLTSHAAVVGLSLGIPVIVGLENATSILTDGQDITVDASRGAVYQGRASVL

Molecule C=C(OP(=O)(O)O)C(=O)O [PEP] has a Km (PykA) of 1.7 mM.

B1: Bacillus subtilis pyruvate kinase PykA (enzyme, UniProt P80885 1-585, looked up)
chain: T2 sequence
notes: Pyruvate kinase PykA of Bacillus subtilis; 1755 bp fragment carrying the pykA gene amplified from genomic DNA and cloned in p2CT; theoretical monomer mass 62,314.9 Da; The forward primer PyKAF starts at the codon for Arg2 (AGA AAA ACT ...), so the first methionine is probably absent; A few vector residues probably remain after TEV cleavage; also called full length PykA; BsuPykA; source: E. coli …
For B1, the “stoichiometry N” value [1] was 4.

B2: PykA (Bacillus subtilis subsp. subtilis str. 168) (protein)
chain: T1 sequence (P80885 2-585)
notes: full length, 585 residues (1755 bp); N-terminal His-MBP tag removed by TEV; E. coli Rosetta(DE3); homotetramer
In the case of B2, the K0.5 (purified protein) is reported as 2.7 mM.

B3: 15mer primer annealed to 30mer template (dsDNA)
DNA 1: AAGGGGGTGTGTGTG
DNA 2: ACACACACACACACACACACACACCCCCTT
B3: no binding (PykA (pyruvate kinase)).
